Results from the emibetuzumab library of Makowski et al. (2022).

B1: VH:VL chains; a variant is named by its letters at X, in order (parent)
chain 1: QVQLVQSGAEVKKPGASVKVSCKASGYTFTDYXMHWVRQAPGQGLEWMGXVNPNXXXTTYNQKFEGRVTMTTDTSTSTAYMELRSLRSDDTAVYYCARXNXLDXWGQGTTVTVSS
chain 2: DIQMTQSPSSLSASVGDRVTITCSVSSSVSSIYLHWYQQKPGKAPKLLIYSTSNLASGVPSRFSGSGSGTDFTLTISSLQPEDFATYYCQVYSGYPLTFGGGTKVEIK

Variants of: B1
Assay: yeast display scFab, FACS + sequencing
Procedure, shortened: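 Non-specific binding was called from deep sequencing of sorted yeast cells displaying a heavy-chain CDR mutant scFab library. Cells labelled with anti-Myc and biotinylated ovalbumin (260 μg/mL in PBSB, 3 h, room temperature) or soluble membrane proteins (130 μg/mL, 20 min on ice) were FACS-sorted, collecting the top 25% and bottom 10% of binders from two replicates. A sequence was positive when present in ≥3 of 4 pooled positive samples and absent from all negatives, and negative under the converse rule.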
With YAGGGDWA the non-specific binding call was “no binding”.
With SAGRGDWD the non-specific binding call was “no binding”.
For DAGKGALF, the non-specific binding call was “no binding”.
For AAGRSDLV chain 1 R67H, the non-specific binding call was “no binding”.
In the case of VAGRGVGD, the non-specific binding call is reported as “binds”.
For YAGRGVGD, the non-specific binding call was “binds”.
In the case of VAGTGSAD, the non-specific binding call is reported as “no binding”.
For FAGRGYSD, the non-specific binding call was “binds”.
With VAGTDDWV the non-specific binding call was “no binding”.
With YAGKTSAD the non-specific binding call was “binds”.
In the case of YAGRSFGS, the non-specific binding call is reported as “binds”.
In the case of SAGRGVGS, the non-specific binding call is reported as “binds”.
With YAGKNAVV the non-specific binding call was “no binding”.
In the case of AAGGNAWS chain 1 G66S, the non-specific binding call is reported as “no binding”.
For AAGRAYGA, the non-specific binding call was “binds”.
In the case of VAGKGAGD, the non-specific binding call is reported as “no binding”.
In the case of VAGTGASD, the non-specific binding call is reported as “no binding”.
With YAGTGFVD the non-specific binding call was “binds”.
For DAGKGAVV, the non-specific binding call was “no binding”.
For DAGKGAVY, the non-specific binding call was “no binding”.
With YAGTGFWV the non-specific binding call was “binds”.
With VAGRSDLV chain 1 R67H the non-specific binding call was “no binding”.
In the case of DAGTGSGA, the non-specific binding call is reported as “no binding”.
For SAGRGSAA, the non-specific binding call was “binds”.
In the case of VAGTGDAA, the non-specific binding call is reported as “no binding”.
In the case of DAGGGYSV, the non-specific binding call is reported as “no binding”.
With YAGRGVVD the non-specific binding call was “binds”.
For YAGRGDSA, the non-specific binding call was “no binding”.
In the case of DAGGGDVA, the non-specific binding call is reported as “no binding”.
With DAGGGDVV the non-specific binding call was “no binding”.
With DAGTAFSS the non-specific binding call was “binds”.
In the case of DAGGGDGA, the non-specific binding call is reported as “no binding”.
With FAGGGDVY the non-specific binding call was “no binding”.
For YAGTGDLV, the non-specific binding call was “no binding”.
For VAGTGAVV, the non-specific binding call was “no binding”.
In the case of FAGGGDGD, the non-specific binding call is reported as “no binding”.
In the case of FAGGGDLV, the non-specific binding call is reported as “no binding”.
In the case of VAGTGDVA, the non-specific binding call is reported as “no binding”.
For VAGTGDVF, the non-specific binding call was “no binding”.
In the case of VAGTGDVY, the non-specific binding call is reported as “no binding”.
With DAGTGAGD the non-specific binding call was “no binding”.
In the case of YAGRGASA, the non-specific binding call is reported as “no binding”.
For FAGRGSAD, the non-specific binding call was “binds”.
In the case of DAGRSDLV chain 1 R67H, the non-specific binding call is reported as “no binding”.
For YAGRGDVD, the non-specific binding call was “no binding”.
In the case of YAGRGDVF, the non-specific binding call is reported as “no binding”.
For YAGRGDVY, the non-specific binding call was “no binding”.
In the case of YAGRGDVS, the non-specific binding call is reported as “no binding”.
With YAGKSAGD the non-specific binding call was “no binding”.
For FAGRSDWV chain 1 R67H, the non-specific binding call was “no binding”.
In the case of YAGTGAVA, the non-specific binding call is reported as “no binding”.
In the case of YAGRGDGA, the non-specific binding call is reported as “no binding”.
With FAGGSFAS the non-specific binding call was “binds”.
With YAGKDDWV the non-specific binding call was “no binding”.
For SAGRGDGS, the non-specific binding call was “no binding”.
In the case of VAGTGFWV, the non-specific binding call is reported as “binds”.
In the case of DAGTGDGV, the non-specific binding call is reported as “no binding”.
With YAGKTAWS the non-specific binding call was “binds”.
With SAGKDDLA the non-specific binding call was “no binding”.
With YAGKGFGA the non-specific binding call was “binds”.
For YAGRTAGV, the non-specific binding call was “binds”.
With DAGGGYGV the non-specific binding call was “no binding”.
For YAGRADVV, the non-specific binding call was “no binding”.
With DAGGGDWD the non-specific binding call was “no binding”.
With DAGGGDWV the non-specific binding call was “no binding”.
For VAGTGDGA, the non-specific binding call was “no binding”.
In the case of VAGTGDGV, the non-specific binding call is reported as “no binding”.
With VAGTGDGY the non-specific binding call was “no binding”.
With YAGRAAWD the non-specific binding call was “binds”.
In the case of FAGRGALD, the non-specific binding call is reported as “binds”.
For DAGTDAGD, the non-specific binding call was “no binding”.
In the case of VAGTGDLA, the non-specific binding call is reported as “no binding”.
With VAGTGDLY the non-specific binding call was “no binding”.
For DAGGGSSD, the non-specific binding call was “no binding”.
With DAGGGSSS the non-specific binding call was “no binding”.
With SAGRSDLV chain 1 R67H the non-specific binding call was “no binding”.
With DAGKSDWY the non-specific binding call was “no binding”.
In the case of FAGRAAWA, the non-specific binding call is reported as “binds”.
For AAGRGFLD, the non-specific binding call was “no binding”.
With FAGRGSSD the non-specific binding call was “binds”.
In the case of VAGTGSLD, the non-specific binding call is reported as “no binding”.
In the case of SAGRGYGD, the non-specific binding call is reported as “binds”.
With VAGKGVLD the non-specific binding call was “binds”.
In the case of DAGRGDGY, the non-specific binding call is reported as “no binding”.
For DAGRGDGF, the non-specific binding call was “no binding”.
With FAGGGDWV the non-specific binding call was “no binding”.
In the case of FAGGGFAV, the non-specific binding call is reported as “binds”.
With YAGRGDLA the non-specific binding call was “no binding”.
In the case of YAGRGDLD, the non-specific binding call is reported as “no binding”.
With YAGRGDLV the non-specific binding call was “no binding”.
With VAGRSFGS the non-specific binding call was “binds”.
In the case of VAGRGSAA, the non-specific binding call is reported as “binds”.
For DAGRGAVS, the non-specific binding call was “no binding”.
In the case of YAGRGFGF, the non-specific binding call is reported as “binds”.
With YAGRGFGA the non-specific binding call was “binds”.
With YAGGTSSD the non-specific binding call was “no binding”.
In the case of FAGRDAVV, the non-specific binding call is reported as “binds”.
With FAGRGVGD the non-specific binding call was “binds”.
With YAGKGAWV the non-specific binding call was “binds”.
With VAGTGDWA the non-specific binding call was “no binding”.
In the case of VAGTGDWV, the non-specific binding call is reported as “no binding”.
With VAGTGDWF the non-specific binding call was “no binding”.
With VAGTGDWD the non-specific binding call was “no binding”.
In the case of VAGTGDWY, the non-specific binding call is reported as “no binding”.
In the case of VAGTDAGA, the non-specific binding call is reported as “no binding”.
For VAGTDAGD, the non-specific binding call was “no binding”.
For YAGRGSAS, the non-specific binding call was “no binding”.
With DAGKGAGD the non-specific binding call was “no binding”.
In the case of YAGRGDAS, the non-specific binding call is reported as “no binding”.
With YAGRGDAD the non-specific binding call was “no binding”.
With YAGRGDWF the non-specific binding call was “no binding”.
In the case of DAGKGSVD, the non-specific binding call is reported as “no binding”.
For SAGRGFGF, the non-specific binding call was “binds”.
With FAGRDVGV the non-specific binding call was “binds”.
